pKd: −log10 of the molar value.
Experiments:
[1] = target: soluble HCV E2 truncated at amino acid 661 (sE2661), His-tagged (Hepatitis C virus (isolate not stated)); assay: SPR (BIAcore A100), antibody captured on anti-Fc chip, sE2 injected 1.56-50 nM, 1:1 Langmuir fit
[2] = target: soluble HCV E2 truncated at amino acid 661 (sE2661), His-tagged (Hepatitis C virus (isolate not stated)); assay: SPR (BIAcore), sE2

Substance | pKd [1] | pKd [2]
AP33 antibody (as used in Example 2) | 8.10 to 8.30 | –
AP33 Fab | – | 7.30

Reference: patent US20120027722A1
